Data from paper PMC9535766, “Structural insights into the assembly and activation of the IL‐27 signaling complex” (EMBO Reports, 2022).

B1: murine IL‐27, linker‐connected single‐chain variant (p28 + EBI3) (ligand)
chain: GSYTETALVALSQPRVQCHASRYPVAVDCSWTPLQAPNSTRSTSFIATYRLGVATQQQSQPCLQRSPQASRCTIPDVHLFSTVPYMLNVTAVHPGGASSSLLAFVAERIIKPDPPEGVRLRTAGQRLQVLWHPPASWPFPDIFSLKYRLRYRRRGASHFRQVGPIEATTFTLRNSKPHAKYCIQVSAQDLTDYGKPSDWSLPGQVESAPHKPRGGGGSGGGGSVESGENLYFQGFPTDPLSLQELRREFTVSLYLARKLLSEVQGYVHSFAESRLPGVNLDLLPLGYHLPNVSLTFQAWHHLSDSERLCFLATTLRPFPAMLGGLGTQGTWTSSEREQLWAMRLDLRDLHRHLRFQVLAAGFKCSKEEEDKEEEEEEEEEEKKLPLGALGGPNQVSSQVSWPQLLYTYQLLHSLELVLSRAVRDLLLLSLPRRPGSAWDS
B2: biotinylated mouse IL‐27Rα (amino acids 28–224) (receptor, UniProt O70394 28-224, looked up)
chain: HGSPGPLQCYSVGPLGILNCSWEPLGDLETPPVLYHQSQKYHPNRVWEVKVPSKQSWVTIPREQFTMADKLLIWGTQKGRPLWSSVSVNLETQMKPDTPQIFSQVDISEEATLEATVQWAPPVWPPQKVLICQFRYKECQAETWTRLEPQLKTDGLTPVEMQNLEPGTCYQVSGRCQVENGYPWGEWSSPLSFQTPF
modifications: N‐terminal biotinylated in vitro using EZ‐Link Sulfo‐NHS‐SS‐Biotin at pH 6.5
notes: IL-27 receptor alpha, murine, amino acids 28–224; Same construct as m2, chemically biotinylated for capture on the streptavidin chip; also called biotinylated IL‐27Rα; source: Trichoplusia ni (High Five) cells, baculovirus, secreted; purified (Ni-NTA, SEC); biotinylated in vitro

Columns and labels:
[1] = target: T1, C‐terminal biotinylated mouse GP130 with biotin acceptor peptide (mouse, UniProt Q00560 23-319, biotin on the biotin acceptor peptide (BirA ligase)); assay: SPR; Biacore T100; biotinylated receptor immobilised on SA chip (~100 RU); IL‐27 flowed, 1:3 dilution series from 100 nM, 30 μl/min; 25°C; 10 mM HEPES, 150 mM NaCl, 0.05% TWEEN‐20, pH 7.2, 0.5% BSA; kinetic 1:1 fit; conditions: both partners purified
T1 construct: GP130, murine, amino acids 23–319; also called biotinylated GP130; source: insect cells (pAcGP67‐A vector), purified; biotinylated with BirA ligase
T1 sequence (looked up): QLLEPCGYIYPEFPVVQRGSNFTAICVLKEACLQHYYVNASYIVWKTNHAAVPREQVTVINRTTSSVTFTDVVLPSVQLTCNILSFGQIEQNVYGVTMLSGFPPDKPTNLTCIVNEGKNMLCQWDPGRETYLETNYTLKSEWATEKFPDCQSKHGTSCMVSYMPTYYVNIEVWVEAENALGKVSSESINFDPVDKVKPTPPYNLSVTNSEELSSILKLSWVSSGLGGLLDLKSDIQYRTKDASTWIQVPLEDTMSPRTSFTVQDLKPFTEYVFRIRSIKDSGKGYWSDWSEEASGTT

[2] = target: B2; assay: as above; conditions: both partners purified
[3] = target: T2, C‐terminal biotinylated mouse GP130 with biotin acceptor peptide (mouse, UniProt Q00560 23-319, biotin on the biotin acceptor peptide (BirA ligase)); assay: SPR
T2 chain: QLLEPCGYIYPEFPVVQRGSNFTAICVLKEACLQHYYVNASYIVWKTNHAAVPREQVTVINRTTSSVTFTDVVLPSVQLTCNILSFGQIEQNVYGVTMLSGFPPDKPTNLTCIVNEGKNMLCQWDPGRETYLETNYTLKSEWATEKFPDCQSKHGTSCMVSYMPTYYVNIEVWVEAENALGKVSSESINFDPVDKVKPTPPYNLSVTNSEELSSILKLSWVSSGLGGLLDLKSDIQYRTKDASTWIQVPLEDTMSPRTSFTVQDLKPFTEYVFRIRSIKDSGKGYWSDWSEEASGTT

[4] = target: T3, biotinylated mouse IL‐27Rα (amino acids 28–224) (mouse, UniProt O70394 28-224, N‐terminal biotinylated in vitro using EZ‐Link Sulfo‐NHS‐SS‐Biotin at pH 6.5); assay: SPR
T3 chain: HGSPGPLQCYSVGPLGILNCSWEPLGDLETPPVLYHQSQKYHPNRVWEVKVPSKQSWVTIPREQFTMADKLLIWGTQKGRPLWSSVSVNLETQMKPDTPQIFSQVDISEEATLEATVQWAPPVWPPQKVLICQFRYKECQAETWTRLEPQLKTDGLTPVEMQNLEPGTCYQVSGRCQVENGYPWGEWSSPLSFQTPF

[5] = target: T4, mouse p28 (IL‐27p28), alone (mouse, UniProt Q8K3I6 29-234); assay: SPR; Biacore T100; biotinylated receptor immobilised on SA chip (~100 RU); p28 flowed, 1:2 dilution series from 20 μM; 25°C; 10 mM HEPES, 150 mM NaCl, 0.05% TWEEN‐20, pH 7.2, 0.5% BSA; equilibrium analysis; conditions: both partners purified
T4 construct: IL-27 p28 subunit, mouse; source: recombinantly produced
T4 sequence (looked up): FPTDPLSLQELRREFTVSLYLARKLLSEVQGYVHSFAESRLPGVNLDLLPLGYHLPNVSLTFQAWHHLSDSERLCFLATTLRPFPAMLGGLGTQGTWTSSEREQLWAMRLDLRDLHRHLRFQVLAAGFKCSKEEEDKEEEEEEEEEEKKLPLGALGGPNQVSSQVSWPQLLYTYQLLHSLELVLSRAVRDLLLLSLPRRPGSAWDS

Row | Binder | Kd [1] | Kd [2] | koff [3] | koff [4] | Kd [5]
1 | B1 | 2.1 nM | 0.28 nM | 0.02 s⁻¹ | 0.001 s⁻¹ | –
2 | B2 | – | – | – | – | 1700 nM
